For data set [1], the system named is human neutrophils. The data set can be described thus: Rate of NETs formation in PMA-stimulated neutrophils after pre-treatment, counted by confocal microscopy. It is filed as cell-based.
The test system of data set [2] is histone-induced thrombus (DIC) model mice. The data set can be described thus: Survival rate/lifetime extension of histone-induced thrombus (DIC) model mice. In kind it is in vivo, mouse. The settings on record: 20 mg/kg i.v. 30 minutes before histone 80 mg/kg, n=8; control: one alive; p=0.0005. As to the method:
80 mg/kg of histone (sigma, H9250) dissolved in physiological saline and left at 37° C. was intravenously administered to the tails of 11 week old male C57BL/6 mice to create DIC model mice (Tobias A. et al., blood, 29 Sep. 2011, vol. 118, no. 13, pp. 3708-3714). As a pre-treatment, 20 mg/kg of bovine lactoferrin was intravenously administered to the tails of the mice, and 30 minute later, histone was intravenously administered to the tails of the mice (n=8). These mice were labeled as a group of mice provided with therapy with lactoferrin. To the tails of different mice (n=8), 100 μl of physiological saline not containing bovine lactoferrin was intravenously administered, and 30 minutes later, histone was intravenously administered. These mice were labeled as a control group of mice provided with no therapy. The survival rate/lifetime extension after the administration of histone was evaluated by use of the Kaplan-Meier method. The control group of mice provided with no therapy gradually started to die about 20 minutes after the administration of histone. Two days later, two mice were alive, and 4 days later, one mouse was alive. By contrast, the 8 mice in the group provided with therapy with bovine lactoferrin were all alive even 4 days later. […]

In data set [3] the test system is histone-induced thrombus model mice. The data set can be described thus: Bleeding time duration in histone-induced thrombus model mice. In kind it is in vivo, mouse. The settings on record: 20 mg/kg i.v. 30 minutes before histone 60 mg/kg, n=5, vs no therapy; p<0.0001. As to the method:
As a pre-treatment, 20 mg/kg of bovine lactoferrin was intravenously administered to the tails of 11 week old male C57BL/6 mice, and 30 minute later, 60 mg/kg of histone (sigma, H9250) dissolved in physiological saline and left at 37° C. was intravenously administered to the tails of the mice to check the effect of hemostasis on the DIC model mice (n=5) (Tobias A, et al., Blood, 2011; 118: pp. 3708-3714) (75% of the amount of histone used for improving the survival rate/lifetime extension was adopted). For control group mice without therapy (n=5), 100 μl of physiological saline not containing bovine lactoferrin was intravenously administered to the tails 30 minutes before the administration of histone. For healthy control mice (n=5), physiological saline, instead of the bovine lactoferrin used for the pre-treatment and also instead of histone, was administered. Twenty minutes after the administration of histone, the vein of the tail of each mouse was cut at a position 3 mm from the end, and immersed in a 37° C. physiological saline. At every 30 seconds, the blood was wiped off with a filter paper, and the bleeding time duration was measured (in the case where the bleeding time duration was 15 minutes or longer, the bleeding time duration was recorded as 15 minutes and a hemostasis treatment was performed) (Fuchs T A, et al., Blood, 2011; 118:3708-3714).

Data set [4] shares this test system. The data set can be described thus: Bleeding in lung tissues of histone-induced thrombus model mice. In kind it is in vivo, mouse. The settings on record: 20 mg/kg i.v. 30 minutes before histone 80 mg/kg, n=4, ten minutes after histone. As to the method: As a pre-treatment, 20 mg/kg of bovine lactoferrin was intravenously administered to the tails of 11 week old male C57BL/6 mice, and 30 minute later, 80 mg/kg of histone (sigma, H9250) dissolved in physiological saline and left at 37° C. was intravenously administered to tails of the mice to create DIC model mice (n=4) (Tobias A., et al., Blood, 29 Sep. 2011; vol. 118: no. 13, pp. 3708-3714). For control group mice with no therapy (n=4), 100 μl of physiological saline not containing bovine lactoferrin was intravenously administered to the tails 30 minutes before histone was intravenously administered. For healthy control group mice (n=4), physiological saline, instead of the bovine lactoferrin used for the pre-treatment and also instead of histone, was administered. Ten minutes after the administration of histone (second administration of physiological saline), the mice were put to euthanasia. Lung tissues were extracted and immobilized by use of 4% paraformaldehyde.

Data set [5] deals with human neutrophils. The data set can be described thus: Specificity experiment: inhibition of NETs formation by DNA concentration in the culture supernatant. The settings on record: n=3, p<0.01, FIG. 10. In kind it is cell-based. As to the method: About 1 hour after the isolation of the neutrophils described in “1. Method of isolating human neutrophils” in Example 2, the neutrophils were pre-treated. On an 8-well microslide (Cat. No. ib 80826 Ibidi (registered trademark)), the neutrophils were seeded in 400 μl of culture DMEM+2% human serum Alb (serum human albumin; Product No. A9080 Sigma+4 mM L-glutamine) at a rate of about 1.0×10^5 cells/well, and stimulated with PMA (final concentration: 25 nM, stock: 10 mM in DMSO, Sigma Prod No. P8139). At thirty minutes before the stimulation, and at every one hour or every two hours after the stimulation, 200 μg/ml of human lactoferrin (stock: 100 mg/ml, 200 μl; Cat. No. SIGL6793, SIGMA) was added to perform inhibition [FIG. 2].
The culture supernatant was recovered and centrifuged at 200×g for 10 minutes, and the supernatant was transferred to a new microscopic centrifuge tube. The DNA amount was measured by use of Picogreen dsDNA assay reagent (P11496 Invitrogen) in accordance with an accompanying protocol. Treatment with human lactoferrin at one hour and two hours after the stimulation was a similar effect to the prior pre-treatment, the DNA concentration in the culture supernatant decreased, resulting in suppression of the release of the DNAs by the NETs [FIG. 2]. […]

The conditions of data set [6]: bovine proteins; cited from earlier work.

B1: bovine lactoferrin: bovine lactoferrin (Product No. 123-04124 WAKO); in Example 9 eluted from crude bovine milk protein; cow lactoferrin SEQ ID NO 2 (protein, listed as Bos taurus)
chain: MKLFVPALLSLGALGLCLAAPRKNVRWCTISQPEWFKCRRWQWRMKKLGAPSITCVRRAFALECIRAIAEKKADAVTLDGGMVFEAGRDPYKLRPVAAEIYGTKESPQTHYYAVAVVKKGSNFQLDQLQGRKSCHTGLGRSAGWIIPMGILRPYLSWTESLEPLQGAVAKFFSASCVPCIDRQAYPNLCQLCKGEGENQCACSSREPYFGYSGAFKCLQDGAGDVAFVKETTVFENLPEKADRDQYELLCLNNSRAPVDAFKECHLAQVPSHAVVARSVDGKEDLIWKLLSKAQEKFGKNKSRSFQLFGSPPGQRDLLFKDSALGFLRIPSKVDSALYLGSRYLTTLKNLRETAEEVKARYTRVVWCAVGPEEQKKCQQWSQQSGQNVTCATASTTDDCIVLVLKGEADALNLDGGYIYTAGKCGLVPVLAENRKSSKHSSLDCVLRPTEGYLAVAVVKKANEGLTWNSLKDKKSCHTAVDRTAGWNIPMGLIVNQTGSCAFDEFFSQSCAPGADPKSRLCALCAGDDQGLDKCVPNSKEKYYGYTGAFRCLAEDVGDVAFVKNDTVWENTNGESTADWAKNLNREDFRLLCLDGTRKPVTEAQSCHLAVAPNHAVVSRSDRAAHVKQVLLHQQALFGKNGKNCPDKFCLFKSETKNLLFNDNTECLAKLGGRPTYEEYLGTEYVTAIANLKKCSTSPLLEACAFLTR
With B1, the “rate of the NETs formed at plateau, compared with stimulation merely with PMA” value was “half” in the data set with human neutrophils [1] (pre-treatment 2 μg/ml for 30 minutes, then PMA 25 nM) and “half” with human neutrophils [1] (pre-treatment 20 μg/ml for 30 minutes, then PMA 25 nM). The “formation of the NETs at plateau, compared with stimulation merely with PMA” value in the data set with human neutrophils [1] (pre-treatment 200 μg/ml for 30 minutes, then PMA 25 nM) is listed as “¼”. In the data set on human neutrophils [1] (pre-treatment with 2, 20 or 200 μg/ml, FIG. 1-A, 1-B), the “inhibitory effect on the formation of the NETs” value is “concentration-dependent manner”. In addition, the “mice alive 4 days after histone” value in data set [2] worked out at 8 mice. In addition, the bleeding time duration entry in data set [3] is “significantly shorter”. Also, the “bleeding in lung tissues” value in data set [4] is listed as “not observed to bleed almost at all”. The “inhibition of the formation of the NETs” value with human neutrophils [5] was “inhibited”. Further, in data set [6], the Isoelectric point is on record as 8.2-8.9.

The record behind these values is patent US20220031813A1, “INHIBITOR OF EXTRACELLULAR TRAP FORMATION IN LEUKOCYTES” (priority 2013, published 2022).
